Laboratory results published in publication PMC4510971, “Ubinuclein-1 confers histone H3.3-specific-binding by the HIRA histone chaperone complex” (Nature Communications, 2015).
Residue numbers refer to the chain shown, from its start. No end group written: not given here. *: point of attachment. FITC = O=C1OC2(c3ccc(O)cc3Oc3cc(O)ccc32)c2ccc(NC(=S)*)cc21

Key:
Details in all cases: both partners purified
[1] = target: T1, H3.1/H4 (human | X. laevis, UniProt P68431 1-136; P62799 1-103); assay: fluorescence polarisation; direct: increasing H3/H4 titrated into 10 nM FITC-UBN1(127–148); 20 mM HEPES pH 7.5, 750 mM NaCl, 1 mM TCEP; one site total binding fit
T1 construct: also called H3.1(FL)/H4(FL); FL H3.1/H4; not shown: His6, N-terminal, cleaved; copies: 2 + 2

[2] = target: T2, H3.3/H4 (human | X. laevis, UniProt P84243 1-136; P62799 1-103); assay: as above
T2 construct: histone H3.3, human, from a human cDNA library (ATCC 77430); also called H3.3(FL)/H4(FL); FL H3.3/H4; not shown: His6, N-terminal, cleaved; copies: 2 + 2

[3] = target: T2, H3.3/H4; assay: pull-down; 2 μM GST-tagged protein as bait on glutathione agarose, 4 μM H3/H4; 20 mM HEPES pH 7.5, 750 mM NaCl, 1 mM TCEP, 4 °C; Coomassie gel (Figs 2, 3, Supplementary Figs 1, 4, 5)
[4] = target: T2, H3.3/H4; assay: ITC + fluorescence polarisation; range of dissociation constants printed 'depending on the assay used' (ITC and FP competition against FITC-UBN1(127–148)); 750 mM NaCl buffer
[5] = target: T2, H3.3/H4; assay: fluorescence polarisation; competition: UBN1 competitor titrated into 10 nM FITC-UBN1(127–148) with 6.5 μM H3.3/H4 or 25 μM H3.1/H4; 20 mM HEPES pH 7.5, 750 mM NaCl, 1 mM TCEP
[6] = target: T3, Asf1/H3.3(FL)/H4(FL) (S. cerevisiae | human | X. laevis, UniProt P32447 1-169; P84243 1-136; P62799 1-103); assay: ITC; 0.450 mM UBN1 injected into a cell with 30 μM H3/H4, 22 °C; 20 mM HEPES pH 7.5, 750 mM NaCl, 1 mM TCEP
T3 construct: histone H3.3, human; also called Asf1/H3.3(FL)/H4(FL) complex; not shown: His6, N-terminal, cleaved; copies: + +

[7] = target: T2, H3.3/H4; assay: as above

B1: FITC-UBN1(127–148) (peptide)
peptide: {FITC}-DMGYGYDESDSFIDNSEAYDEL
notes: also called FITC-labelled UBN1 peptide; source: synthetic peptide (Genscript)
Kd [1]: 17.7 ± 2.3 µM | Kd [2]: 4.3 ± 0.2 µM

B2: GST-UBN1(92–175) E134A (domain or fragment)
chain: NDEEKERHKVEALARKFEEKYGGKKRRKDRIQDLIDMGYGYDASDSFIDNSEAYDELVPASLTTKYGGFYINSGTLQFRQASES
notes: one of the 27 alanine point mutants; the text names only the residue; also called E134 alanine point mutant; source: E. coli BL21-Gold(DE3), purified; not shown: GST, N-terminal, kept
binding result [3]: binds

B3: GST-UBN1(92–175) S137A (domain or fragment)
chain: B2 chain with A43E, S46A
notes: also called S137 alanine point mutant; source: E. coli BL21-Gold(DE3), purified; not shown: GST, N-terminal, kept
binding result [3]: binds

B4: GST-UBN1(92–175) S135A (domain or fragment)
chain: B2 chain with A43E, S44A
notes: one of the 27 alanine point mutants; the text names only the residue; also called S135 alanine point mutant; source: E. coli BL21-Gold(DE3), purified; not shown: GST, N-terminal, kept
binding result [3]: binds

B5: UBN1(92–175) (domain or fragment)
chain: B2 chain with A43E
notes: also called UBN1 WT; source: E. coli BL21-Gold(DE3), purified (glutathione agarose, TEV cleavage, gel filtration); not shown: GST, N-terminal, cleaved
Kd [4]: 7 to 17 µM

B6: UBN1(92–175) S137A (domain or fragment)
chain: B2 chain with A43E, S46A
notes: source: E. coli BL21-Gold(DE3), purified (TEV cleavage, gel filtration); not shown: GST, N-terminal, cleaved
binding result [5]: binds

B7: UBN1(92–175) E134A (domain or fragment)
chain: B2 chain
notes: one of the 27 alanine point mutants; the text names only the residue; also called E134 alanine point mutant; source: E. coli BL21-Gold(DE3), purified (TEV cleavage, gel filtration); not shown: GST, N-terminal, cleaved
binding result [5]: binds

B8: UBN1(92–175) S135A (domain or fragment)
chain: B2 chain with A43E, S44A
notes: one of the 27 alanine point mutants; the text names only the residue; also called S135 alanine point mutant; source: E. coli BL21-Gold(DE3), purified (TEV cleavage, gel filtration); not shown: GST, N-terminal, cleaved
binding result [5]: binds

B9: UBN1(122–148) peptide (peptide)
peptide: IQDLIDMGYGYDESDSFIDNSEAYDEL
notes: also called UBN1-HRD peptide; source: synthetic peptide (Genscript)
Kd [6]: ~49 µM | Kd [4]: 40 to 46 µM

B10: UBN1(92–148) (domain or fragment)
chain: NDEEKERHKVEALARKFEEKYGGKKRRKDRIQDLIDMGYGYDESDSFIDNSEAYDEL
binding result [7]: binds

B11: UBN1(122–175) (domain or fragment)
chain: not shown
binding result [7]: binds
